The values that follow come from patent US20210388087A1 (Chugai, published 2021).

Positions count from the first letter of the chain named.

The labels stand for the following.
B1: CE115HA000/GLS3000 S27eA (antibody, IgG1, name in Kabat numbering, V domains shown)
VH: QVQLVESGGGVVQPGRSLRLSCAASGFTFSNAWMHWVRQAPGKGLEWVAQIKAKSNNYATYYAESVKGRFTISRDDSKNSLYLQMNSLKTEDTAVYYCRYVHYGAYYGVDAWGQGTTVTVSS
VL: DIVMTQSPLSLPVTPGEPASISCRSSQSLVHANRNTYLHWYQQKPGQAPRLLIYKVSNRFSGVPDRFSGSGSGTDFTLKISRVEAEDVGVYYCGQGTQVPYTFGQGTKLEIK
notes: one-arm IgG1
B2: CE115HA000/GLS3000 F55H (antibody, IgG1, name in Kabat numbering, V domains shown)
VH: B1 VH
VL: B1 VL with A32S, F60H
notes: one-arm IgG1
B3: CE115HA000/GLS3000 F55D (antibody, IgG1, name in Kabat numbering, V domains shown)
VH: B1 VH
VL: B1 VL with A32S, F60D
notes: one-arm IgG1
B4: CE115HA000/GLS3000 F55S (antibody, IgG1, name in Kabat numbering, V domains shown)
VH: B1 VH
VL: B1 VL with A32S, F60S
notes: one-arm IgG1
B5: CE115HA000/GLS3000 F55Y (antibody, IgG1, name in Kabat numbering, V domains shown)
VH: B1 VH
VL: B1 VL with A32S, F60Y
notes: one-arm IgG1
B6: CE115HA000/GLS3000 F55I (antibody, IgG1, name in Kabat numbering, V domains shown)
VH: B1 VH
VL: B1 VL with A32S, F60I
notes: one-arm IgG1
B7: CE115HA000/GLS3000 F55Q (antibody, IgG1, name in Kabat numbering, V domains shown)
VH: B1 VH
VL: B1 VL with A32S, F60Q
notes: one-arm IgG1
B8: CE115HA000/GLS3000 F55P (antibody, IgG1, name in Kabat numbering, V domains shown)
VH: B1 VH
VL: B1 VL with A32S, F60P
notes: one-arm IgG1
B9: CE115HA000/GLS3000 F55V (antibody, IgG1, name in Kabat numbering, V domains shown)
VH: B1 VH
VL: B1 VL with A32S, F60V
notes: one-arm IgG1
B10: CE115HA000/GLS3000 F55K (antibody, IgG1, name in Kabat numbering, V domains shown)
VH: B1 VH
VL: B1 VL with A32S, F60K
notes: one-arm IgG1
B11: CE115HA000/GLS3000 F55T (antibody, IgG1, name in Kabat numbering, V domains shown)
VH: B1 VH
VL: B1 VL with A32S, F60T
notes: one-arm IgG1
B12: CE115HA000/GLS3000 F55R (antibody, IgG1, name in Kabat numbering, V domains shown)
VH: B1 VH
VL: B1 VL with A32S, F60R
notes: one-arm IgG1
B13: CE115HA000/GLS3000 F55M (antibody, IgG1, name in Kabat numbering, V domains shown)
VH: B1 VH
VL: B1 VL with A32S, F60M
notes: one-arm IgG1
B14: CE115HA000/GLS3000 G89A (antibody, IgG1, name in Kabat numbering, V domains shown)
VH: B1 VH
VL: B1 VL with A32S, G94A
notes: one-arm IgG1
B15: CE115HA000/GLS3000 F55A (antibody, IgG1, name in Kabat numbering, V domains shown)
VH: B1 VH
VL: B1 VL with A32S, F60A
notes: one-arm IgG1
B16: CE115HA000/GLS3000 G89D (antibody, IgG1, name in Kabat numbering, V domains shown)
VH: B1 VH
VL: B1 VL with A32S, G94D
notes: one-arm IgG1
B17: CE115HA000/GLS3000 F55G (antibody, IgG1, name in Kabat numbering, V domains shown)
VH: B1 VH
VL: B1 VL with A32S, F60G
notes: one-arm IgG1
B18: CE115HA000/GLS3000 F55L (antibody, IgG1, name in Kabat numbering, V domains shown)
VH: B1 VH
VL: B1 VL with A32S, F60L
notes: one-arm IgG1
B19: CE115HA000/GLS3000 F55N (antibody, IgG1, name in Kabat numbering, V domains shown)
VH: B1 VH
VL: B1 VL with A32S, F60N
notes: one-arm IgG1
B20: CE115HA000/GLS3000 G89E (antibody, IgG1, name in Kabat numbering, V domains shown)
VH: B1 VH
VL: B1 VL with A32S, G94E
notes: one-arm IgG1
B21: CE115HA000/GLS3000 F55E (antibody, IgG1, name in Kabat numbering, V domains shown)
VH: B1 VH
VL: B1 VL with A32S, F60E
notes: one-arm IgG1
B22: CE115HA000/GLS3000 F55W (antibody, IgG1, name in Kabat numbering, V domains shown)
VH: B1 VH
VL: B1 VL with A32S, F60W
notes: one-arm IgG1
B23: GLS3000 Y32A (antibody, name in Kabat numbering, V domains shown)
VH: B1 VH
VL: B1 VL with A32S, Y37A
notes: one-arm IgG as m2
B24: GLS3000 Y96D (antibody, name in Kabat numbering, V domains shown)
VH: B1 VH
VL: B1 VL with A32S, Y101D
notes: one-arm IgG as m2
B25: GLS3000 Y96H (antibody, name in Kabat numbering, V domains shown)
VH: B1 VH
VL: B1 VL with A32S, Y101H
notes: one-arm IgG as m2
B26: GLS3000 Y96E (antibody, name in Kabat numbering, V domains shown)
VH: B1 VH
VL: B1 VL with A32S, Y101E
notes: one-arm IgG as m2
B27: GLS3000 Y96F (antibody, name in Kabat numbering, V domains shown)
VH: B1 VH
VL: B1 VL with A32S, Y101F
notes: one-arm IgG as m2
B28: GLS3000 Y32F (antibody, name in Kabat numbering, V domains shown)
VH: B1 VH
VL: B1 VL with A32S, Y37F
notes: one-arm IgG as m2
B29: GLS3000 Y96L (antibody, name in Kabat numbering, V domains shown)
VH: B1 VH
VL: B1 VL with A32S, Y101L
notes: one-arm IgG as m2
B30: GLS3000 Y32P (antibody, name in Kabat numbering, V domains shown)
VH: B1 VH
VL: B1 VL with A32S, Y37P
notes: one-arm IgG as m2
B31: GLS3000 Y32D (antibody, name in Kabat numbering, V domains shown)
VH: B1 VH
VL: B1 VL with A32S, Y37D
notes: one-arm IgG as m2

The target of the first test is T1, CD3 epsilon homodimer protein (UniProt P07766 23-126).
T1 construct: also called CD3 (CD3 epsilon)
Kind of test: SPR, antibody over immobilised CD3e homodimer.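 Further: SPR at 25 °C with CD3 epsilon homodimer amine-coupled to a CM4 sensor chip and antibody flowed over as analyte in HBS-EP+ running buffer.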 On the technique in general: Surface plasmon resonance follows binding to a sensor surface in real time, without labels.
T1 sequence (P07766 23-126): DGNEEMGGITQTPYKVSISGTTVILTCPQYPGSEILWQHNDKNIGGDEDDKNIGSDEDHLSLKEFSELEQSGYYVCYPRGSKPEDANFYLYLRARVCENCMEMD
As for B1, the “KD ratio to GLS3000” value was determined as 1.01. The same measure, in the same setting: as for B2, the figure is 1.02; as for B3, 1.02. Consider B4, for which the “KD ratio to GLS3000” value stood at 1.15. Turning to B5, the “KD ratio to GLS3000” value came to 1.13.

On to B6, for which the “KD ratio to GLS3000” value turned out to be 1.28. As to B7, the “KD ratio to GLS3000” value came to 1.09. As to B8, the “KD ratio to GLS3000” value came out at 1.15. For the molecule B9, the “KD ratio to GLS3000” value was found to be 1.12. On to B10, for which the “KD ratio to GLS3000” value came to 1.55. Same read-out and setting: as for B11, the figure is 2.42. On to B12, for which the “KD ratio to GLS3000” value is 1.27. On to B13, for which the “KD ratio to GLS3000” value came out at 1.29. As to B14, the “KD ratio to GLS3000” value was determined as 1.1. With B15, the “KD ratio to GLS3000” value worked out at 1.16. With B16, the “KD ratio to GLS3000” value turned out to be 1.96.

As for B17, the “KD ratio to GLS3000” value is 1.15. With B18, the “KD ratio to GLS3000” value was found to be 1.43. As to B19, the “KD ratio to GLS3000” value amounted to 0.91. With B20, the “KD ratio to GLS3000” value came to 34.6. On the same count and under the same terms, with B21 the figure was 0.92; with B22, 1.72.

In a further test the target is T2, CD3 epsilon homodimer protein (UniProt P07766 23-126).
T2 construct: also called CD3 (CD3 epsilon)
Kind of test: SPR Biacore T200, CD3e homodimer on chip, vs unaltered GLS3000 antibody.
T2 sequence (P07766 23-126): as above
As to B23, the “ratio of amounts bound (Z=Y/X)” value is 0.24.

Turning to B24, the “ratio of amounts bound (Z=Y/X)” value came to 0.17. Regarding B25, the “ratio of amounts bound (Z=Y/X)” value was 0.23. Take B26: the “ratio of amounts bound (Z=Y/X)” value was found to be 0.17. As to B27, the “ratio of amounts bound (Z=Y/X)” value turned out to be 1.17. Turning to B28, the “ratio of amounts bound (Z=Y/X)” value was 0.29. As for B29, the “ratio of amounts bound (Z=Y/X)” value amounted to 0.32. As for B30, the “ratio of amounts bound (Z=Y/X)” value came out at 0.24. Consider B31, for which the “ratio of amounts bound (Z=Y/X)” value stood at 0.23.
